Source: paper PMC9556597

Target: AV-1980R recombinant protein (3xTau2-18-MultiTEP) (human) (UniProt P10636)
Assay: AUC; protein in 3.2 M urea

In the case of “AV-1980R recombinant protein (3xTau2-18-MultiTEP) (from UniProt P10636 2-18; P10636 2-18; P10636 2-18)”, the stoichiometry N is reported as 4.
